{"source": "patent US20120058906A1", "about": "(published 2012);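 also: blank spot per well as comparator with Hit at signal to blank ratio of 4 or more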", "binders": {"B1": {"name": "Fab VH5-51_IGHD5-18*01>3_IGHJ4*01_G100K & V3-4_IGLJ1*01 (Fab, V domains shown)", "VH": "EVQLVQSGAEVKKPGESLKISCKGSGYSFTSYWIGWVRQMPGKGLEWMGIIYPGDSDTRYSPSFQGQVTISADKSISTAYLQWSSLKASDTAMYYCARRKYSYGYDYFDYWGQGTLVTVSS", "VL": "QTVVTQEPSFSVSPGGTVTLTCGLSSGSVSTSYYPSWYQQTPGQAPRTLIYSTNTRSSGVPDRFSGSILGNKAALTITGAQADDESDYYCVLYMGSGISYVFGTGTKVTVL", "notes": "It was expressed as a Fab: CH1 with tags from Plasmid A and lambda CL from Plasmid E; also called Fab No. 22"}, "B2": {"name": "Fab VH1-46_IGHD3-10*01_IGHJ4*01 & B3_IGKJ1*01 (Fab, V domains shown)", "VH": "QVQLVQSGAEVKKPGASVKVSCKASGYTFTSYYMHWVRQAPGQGLEWMGIINPSGGSTSYAQKFQGRVTMTRDTSTSTVYMELSSLRSEDTAVYYCAREYYYGSGSYYNDYFDYWGQGTLVTVSS", "VL": "not shown", "notes": "also called IGHV1-46*01"}, "B3": {"name": "Fab VH1-46_IGHD6-6*01_IGHJ1*01 & L6_IGKJ1*01 (Fab, V domains shown)", "VH": "QVQLVQSGAEVKKPGASVKVSCKASGYTFTSYYMHWVRQAPGQGLEWMGIINPSGGSTSYAQKFQGRVTMTRDTSTSTVYMELSSLRSEDTAVYYCAREEYSSSSAEYFQHWGQGTLVTVSS", "VL": "not shown", "notes": "Expressed in E. coli as Fab: heavy chain with CH1 plus Flag and His tags from Plasmid A, kappa light chain constant region from Plasmid C; also called Fab No. 1"}}, "key": {"[1]": {"biological_target": "T1, rHuman P-Cadherin/Fc Chimera, CF (R&D Systems Cat#861-PC) (human, UniProt P22223 108-654)", "T1 construct": "Purchased Fc chimera; not shown: Fc portion of the purchased chimera", "test": "MSD ECL multi-spot plate, antigen immobilized; Fab 40 nM; blank spot 518"}, "[2]": {"biological_target": "T2, rHuman HGF R/c-MET/Fc Chimera, CF (R&D Systems Cat#358-MT/CF) (human, UniProt P08581 25-932)", "T2 construct": "Purchased Fc chimera; also called HGF R/Fc; not shown: Fc portion of the purchased chimera", "test": "MSD ECL multi-spot plate, antigen immobilized; Fab 40 nM; blank spot 518"}, "[3]": {"biological_target": "T3, rHuman ErbB2/Fc Chimera, CF (R&D Systems Cat#1129-ER) (human, UniProt P04626 23-652)", "T3 construct": "Purchased Fc chimera; also called HER2/neu; not shown: Fc portion of the purchased chimera", "test": "MSD ECL multi-spot plate, antigen immobilized; Fab 40 nM; blank spot 518"}, "[4]": {"biological_target": "T4, rHuman IGF-1 sR (IGF-1 sR), CF (R&D Systems Cat#391-GR) (human, UniProt P08069 31-932)", "T4 construct": "Purchased soluble receptor; also called insulin-like growth factor-1 soluble receptor; IGF-R1", "test": "MSD ECL multi-spot plate, antigen immobilized; Fab 40 nM; blank spot 518"}, "[5]": {"biological_target": "T5, rHuman CD44/Fc Chimera, CF (R&D Systems Cat#3660-CD) (human, UniProt P16070 21-220)", "T5 construct": "Purchased Fc chimera; not shown: Fc portion of the purchased chimera", "test": "MSD ECL multi-spot plate, antigen immobilized; Fab 40 nM; blank spot 518"}, "[6]": {"biological_target": "T6, Recombinant Human DLL4 (R&D Systems Cat#1506-D4/CF) (human, UniProt Q9NR61 27-524)", "T6 construct": "Purchased recombinant protein; also called delta-like protein 4", "test": "MSD ECL multi-spot plate, antigen immobilized; Fab 40 nM; blank spot 518"}, "[7]": {"biological_target": "T7, rHuman EGF R/Fc Chimera, CF (R&D Systems Cat#344-ER) (human, UniProt P00533 25-645)", "T7 construct": "Purchased Fc chimera; not shown: Fc portion of the purchased chimera", "test": "MSD ECL multi-spot plate, antigen immobilized; Fab 40 nM; blank spot 518"}, "[8]": {"biological_target": "T8, rHuman Notch-1/Fc Chimera, CF (R&D Systems Cat#3647-TK) (human, UniProt P46531 19-526)", "T8 construct": "Purchased Fc chimera; not shown: Fc portion of the purchased chimera", "test": "MSD ECL multi-spot plate, antigen immobilized; Fab 40 nM; blank spot 518"}, "[9]": {"biological_target": "T9, rHuman Erythropoietin R/Fc Chimera, CF (R&D Systems Cat#963-ER) (human, UniProt P19235 25-250)", "T9 construct": "Purchased Fc chimera; also called EPO R/Fc; Epo R; not shown: Fc portion of the purchased chimera", "T9 sequence": "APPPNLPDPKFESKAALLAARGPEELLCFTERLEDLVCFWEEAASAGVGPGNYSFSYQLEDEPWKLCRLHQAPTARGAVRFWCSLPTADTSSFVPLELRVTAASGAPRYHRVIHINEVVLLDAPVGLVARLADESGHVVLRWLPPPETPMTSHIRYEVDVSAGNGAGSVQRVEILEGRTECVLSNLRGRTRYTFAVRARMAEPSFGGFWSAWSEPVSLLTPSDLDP", "test": "MSD ECL multi-spot plate, antigen immobilized; Fab 40 nM; blank spot 518"}, "[10]": {"biological_target": "T10, rHuman CD44/Fc Chimera, CF (R&D Systems Cat#3660-CD) (human, UniProt P16070 21-220)", "T10 construct": "Bought reagent; Fc part of the bought chimera not given", "test": "ECL (MSD multi-spot), antigen spotted on plate; Fab 176.3 nM; blank spot 346"}, "[11]": {"biological_target": "T11, rHuman HGF R/c-MET/Fc Chimera, CF (R&D Systems Cat#358-MT/CF) (human, UniProt P08581 25-932)", "T11 construct": "Bought reagent; also called HGF R/Fc; hepatocyte growth factor receptor; Fc part of the bought chimera not given", "test": "ECL (MSD multi-spot), antigen spotted on plate; Fab 176.3 nM; blank spot 346"}, "[12]": {"biological_target": "T12, rHuman Notch-1/Fc Chimera, CF (R&D Systems Cat#3647-TK) (human, UniProt P46531 19-526)", "T12 construct": "Bought Fc chimera; Fc part of the bought chimera not given", "test": "MSD ECL titration, Fab 595.8 nM, blank 285"}, "[13]": {"biological_target": "T13, rHuman Erythropoietin R/Fc Chimera, CF (R&D Systems Cat#963-ER) (human, UniProt P19235 25-250)", "T13 construct": "Bought Fc chimera; also called EPO R/Fc; EPOR; Fc part of the bought chimera not given", "T13 sequence": "T9 sequence", "test": "MSD ECL titration, Fab 595.8 nM, blank 285"}, "[14]": {"biological_target": "T14, rHuman HGF R/c-MET/Fc Chimera, CF (R&D Systems Cat#358-MT/CF) (human, UniProt P08581 25-932)", "T14 construct": "Bought Fc chimera; also called HGF R/Fc; Fc part of the bought chimera not given", "test": "MSD ECL titration, Fab 595.8 nM, blank 285"}, "[15]": {"biological_target": "T15, rHuman P-Cadherin/Fc Chimera, CF (R&D Systems Cat#861-PC) (human, UniProt P22223 108-654)", "T15 construct": "Bought Fc chimera; Fc part of the bought chimera not given", "test": "MSD ECL titration, Fab 595.8 nM, blank 285"}, "[16]": {"biological_target": "T16, rHuman EGF R/Fc Chimera, CF (R&D Systems Cat#344-ER) (human, UniProt P00533 25-645)", "T16 construct": "Bought Fc chimera; Fc part of the bought chimera not given", "test": "MSD ECL titration, Fab 595.8 nM, blank 285"}, "[17]": {"biological_target": "T17, rHuman IGF-1 sR (insulin-like growth factor-1 soluble receptor), CF (R&D Systems Cat#391-GR) (human, UniProt P08069 31-932)", "T17 construct": "Bought soluble receptor; also called IGF-R1", "test": "MSD ECL titration, Fab 595.8 nM, blank 285"}, "[18]": {"biological_target": "T18, rHuman ErbB2/Fc Chimera, CF (R&D Systems Cat#1129-ER) (human, UniProt P04626 23-652)", "T18 construct": "Bought Fc chimera; also called HER2/neu; Fc part of the bought chimera not given", "test": "MSD ECL titration, Fab 595.8 nM, blank 285"}, "[19]": {"biological_target": "T19, rHuman CD44/Fc Chimera, CF (R&D Systems Cat#3660-CD) (human, UniProt P16070 21-220)", "T19 construct": "Bought Fc chimera; Fc part of the bought chimera not given", "test": "MSD ECL titration, Fab 595.8 nM, blank 285"}}}
{"binder": "B1", "values": [{"measurement": "ECL signal", "setting": "[1]", "value": 744, "unit": "ECL signal"}, {"measurement": "ECL signal", "setting": "[2]", "value": 1310, "unit": "ECL signal"}, {"measurement": "ECL signal", "setting": "[3]", "value": 1390, "unit": "ECL signal"}, {"measurement": "ECL signal", "setting": "[4]", "value": 1270, "unit": "ECL signal"}, {"measurement": "ECL signal", "setting": "[5]", "value": 857, "unit": "ECL signal"}, {"measurement": "ECL signal", "setting": "[6]", "value": 35900, "unit": "ECL signal"}, {"measurement": "ECL signal", "setting": "[7]", "value": 1150, "unit": "ECL signal"}, {"measurement": "ECL signal", "setting": "[8]", "value": 875, "unit": "ECL signal"}, {"measurement": "ECL signal", "setting": "[9]", "value": 979, "unit": "ECL signal"}]}
{"binder": "B2", "values": [{"measurement": "ECL signal", "setting": "[10]", "value": 376}, {"measurement": "ECL signal", "setting": "[11]", "value": 418}]}
{"binder": "B3", "values": [{"measurement": "ECL signal", "setting": "[12]", "value": 306}, {"measurement": "ECL signal", "setting": "[13]", "value": 378}, {"measurement": "ECL signal", "setting": "[14]", "value": 353}, {"measurement": "ECL signal", "setting": "[15]", "value": 617}, {"measurement": "ECL signal", "setting": "[16]", "value": 403}, {"measurement": "ECL signal", "setting": "[17]", "value": 335}, {"measurement": "ECL signal", "setting": "[18]", "value": 321}, {"measurement": "ECL signal", "setting": "[19]", "value": 372}]}
